Source: patent US20130178394A1 (UNIVERSITY OF TOKYO, published 2013)
Bridge positions count the residues as written; N and C are the ends. Square brackets hold non-standard residues; d marks the D form. NMeF = CN[C@@H](Cc1ccccc1)C(=O)O; NMeS = CN[C@@H](CO)C(=O)O; Sar = CNCC(=O)O

Biological target: T1, biotinylated Avi-His-GB1-E6AP-HECT domain (human, UniProt P06654 228-282; Q05086 495-852, limits assumed, biotin on the Avi tag)
T1 construct: domain: Protein GB1 domain;domain: HECT domain; also called C terminal domain of ubiquitin ligase E6AP
T1 sequence (P06654 228-282, tags or fused parts left off): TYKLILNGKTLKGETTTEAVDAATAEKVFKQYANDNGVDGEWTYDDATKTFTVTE
Assay: SPR, BIACORE T100, Avi-His-GB1-E6AP-HECT on streptavidin chip, peptide as analyte
Description: The binding constant of MCP11 to E6AP-HECT was analyzed by a surface plasmon resonance using BIACORE T100.
A streptavidin sensor chip (SA chip certified) was used as a sensor chip, an Avi-His-GB1-E6AP-HECT was used as a ligand, and MCP11 was used as an analyte.

Kd: 0.5 nM
B1: MCP11, Cyclo(-Ac-DWCDVMeSGRMeFMeGYMeFPC)G-OH (chemically synthesized cyclic N-methyl peptide) (peptide)
peptide: {CH2CO}-[dW]CDV[NMeS]GR[NMeF][Sar]Y[NMeF]PCG-OH
modifications: thioether N-13
notes: The formula stands in the summary (h-0009)
